Experiment [1] addresses membrane-bound TNFalpha on stably transfected CHO cells (B-220 cells). As to the kind of experiment: FACS, anti-CD19-APC beads with TNFalpha-transfected CHO cells (Fig. 4b). On the technique in general: In flow cytometry, cells or beads pass a laser one at a time.
Experiment [2] has the same target. The experiment is described as follows: FACS, beads with CHO-TNFα (B220) cells, Sample 2.

Regarding “APC labeled unrelated antibody (anti-CD 19) (coated on beads)”, in experiment [1], the # Events (P4, CHO cells bound to anti-CD19 beads) worked out at 6 events; the % Parent (P4, CHO cells bound to anti-CD19 beads) is 0.1%; the % Total (P4, CHO cells bound to anti-CD19 beads) is 0.1%. In experiment [2], this substance returned a % bound beads of 0.9%.

These data come from EP3964526A1.
